Target: Gal4p BD fused with murine p53 (pGBKT7-53) (murine)
Test: two-hybrid

Gal4 AD fused with the SV40 large T-antigen (pGADT7-T) (natural protein)
mean GFP fluorescence at 72 hrs: 156 | mean GFP fluorescence at 96 hrs: 116 | percent GFP positive cells: 69.9% | percent GFP positive cells at 30-48 hrs: 3 to 5% | percent GFP positive cells at 72 hrs: 23.8% | percent GFP positive cells at 96 hrs: 23.5%
